The assay deals with human plasma-derived Factor IXa (human) (UniProt P00740). In words: cell-based or functional assay.
human plasma-derived Factor IXa (human), sequence (P00740 47-191, chain 1 of 2): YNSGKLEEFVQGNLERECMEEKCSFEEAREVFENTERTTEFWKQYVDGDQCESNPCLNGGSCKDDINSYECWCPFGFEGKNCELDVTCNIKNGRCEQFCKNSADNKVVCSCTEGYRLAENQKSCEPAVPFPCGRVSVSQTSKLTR
human plasma-derived Factor IXa (human), sequence (P00740 227-461, chain 2 of 2): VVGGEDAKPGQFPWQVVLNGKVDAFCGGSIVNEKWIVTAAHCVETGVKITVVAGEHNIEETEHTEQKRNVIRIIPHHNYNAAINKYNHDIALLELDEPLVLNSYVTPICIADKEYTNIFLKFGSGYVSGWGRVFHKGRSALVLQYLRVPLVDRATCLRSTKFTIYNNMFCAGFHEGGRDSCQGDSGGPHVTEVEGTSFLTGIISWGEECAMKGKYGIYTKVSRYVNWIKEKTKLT

B1: one-armed (OA) 224F3 antibody (antibody, from another filing, V domains shown)
VH: QVQMQQSGAELVKPGASVKLSCKASGYTFTSQDINWVRQRPEQGLEWIGWIFPGDGSTKYNEKLKGKATLTTDKSSSTAFMQLSRLTSEDSAVYFCARSAYYRYDGSYYYAMDYWGQGTSVTVSS
VL: QIVLTQSPAIMSASLGEEITLTCSASSSVSYMLWYQQKSGTSPKLLIYTTSNLASGVPSRFSGTGSGTFYSLTISSVEAEDAADYYCHQWSSYPRTFGGGTKLEIKR
B1 registered a Stimulation Index, FXa generation assay, 3260 nM OA antibody of less than 10 fold.

Values taken from US20260193376A1.
